This is an account of results in US20240317807A1 (COMPLIX, published 2024).

Assay [1] has as its target MCL-1 (endogenous, in human multiple myeloma cells such as NCI-H929) (human, UniProt Q07820 1-350). The assay is described as follows: cell-based or functional assay.
The target of assay [2] is T1, human serum albumin (human, UniProt P02768 25-609).
T1 construct: also called HSA
As to the kind of experiment: solution ELISA, free CPAB detected on milk-blocked plate. The protocol:
(§1) A Nunc plate was blocked O/N with PBS+2% skimmed milk in PBS at 4° C. […] In addition, a ‘calibrator’ dilution series of CPAB (seven 3-fold dilutions starting at 100 nM plus a blank) in 100 mM TRIS+100 mM NaCl+1% BSA at pH 7.4 was prepared. The albumin-CPAB mixtures and the calibrator series were then transferred to the ELISA plate in duplicate (two columns for each series) and incubated for another 30 min at RT while shaking. Detection of plate-bound CPAB was performed with 1/5000 anti-V5-HRP (Invitrogen. R961-25) in PBS+0.1% BSA for 30 min at RT while shaking. After each incubation step, the plate was washed 4× with PBS containing 0.05% Tween 20.

The target in another assay is T2, mouse serum albumin (mouse, UniProt P07724 25-608).
T2 construct: also called MSA
The description is as above. The protocol: as §1

Assay [3] addresses T1, human serum albumin. As to the kind of experiment: solution ELISA, KD 310 nM against 7.5 nM. On the procedure: as §1
Assay [4] addresses T3, GST-tagged MCL-1 (GST-MCL-1 fusion protein, MCL-1 residues Asp172-Gly327) (human, UniProt Q07820 173-327).
T3 construct: not shown: Glutathione S-transferase fusion partner from the pET42 vector (Novagen)
The assay is described as follows: solution ELISA, free GST-MCL-1 captured on Alphabody phage. On the procedure:
A Nunc plate was coated with 1 μg/mL anti-M13 (Fischer Scientific) in PBS for 2 h at room temperature (RT). The plate was then blocked with 2% skimmed milk in PBS for 2 h at RT while shaking. […] After each incubation step, the plate was washed 4× with PBS containing 0.05% Tween 20, except after the incubation step of the mixture and calibrator samples where the plate was washed 12 times. The plate was developed with Sure Blue and the reaction was stopped with H₂SO₄. Optical densities (ODs) were read at 450 nm.

Where a chain is given by its changes, count along the chain named.

Broadly, the Kd is the concentration at which binding is half-saturated. High values mean weaker binding, low ones tighter binding.

MCL-1 (endogenous, in human multiple myeloma cells such as NCI-H929), sequence (Q07820 whole entry): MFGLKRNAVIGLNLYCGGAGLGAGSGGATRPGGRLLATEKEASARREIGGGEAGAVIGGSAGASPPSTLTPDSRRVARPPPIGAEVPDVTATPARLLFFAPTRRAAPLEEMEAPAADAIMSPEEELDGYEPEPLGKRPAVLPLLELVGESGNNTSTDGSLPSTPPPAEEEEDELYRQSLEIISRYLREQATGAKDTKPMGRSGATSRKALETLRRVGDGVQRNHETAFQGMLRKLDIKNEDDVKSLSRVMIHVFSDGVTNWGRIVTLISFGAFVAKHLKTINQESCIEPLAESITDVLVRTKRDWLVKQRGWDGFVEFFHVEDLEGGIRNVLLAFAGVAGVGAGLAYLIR
T2 sequence (P07724 25-608 limits assumed): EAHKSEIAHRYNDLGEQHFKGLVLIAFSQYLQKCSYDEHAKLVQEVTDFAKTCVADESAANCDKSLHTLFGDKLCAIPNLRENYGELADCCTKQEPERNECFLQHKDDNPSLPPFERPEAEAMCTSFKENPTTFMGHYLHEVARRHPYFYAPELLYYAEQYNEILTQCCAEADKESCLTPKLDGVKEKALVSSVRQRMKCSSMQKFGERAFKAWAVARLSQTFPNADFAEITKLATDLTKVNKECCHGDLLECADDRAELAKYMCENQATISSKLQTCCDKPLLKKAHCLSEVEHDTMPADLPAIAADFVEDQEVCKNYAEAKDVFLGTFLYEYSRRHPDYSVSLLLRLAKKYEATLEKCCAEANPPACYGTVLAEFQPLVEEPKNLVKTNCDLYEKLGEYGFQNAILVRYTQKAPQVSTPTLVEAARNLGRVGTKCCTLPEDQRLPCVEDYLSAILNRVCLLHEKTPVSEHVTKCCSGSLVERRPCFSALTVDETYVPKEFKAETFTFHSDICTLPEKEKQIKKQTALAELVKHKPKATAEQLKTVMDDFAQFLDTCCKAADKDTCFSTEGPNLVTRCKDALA
T3 sequence (Q07820 173-327): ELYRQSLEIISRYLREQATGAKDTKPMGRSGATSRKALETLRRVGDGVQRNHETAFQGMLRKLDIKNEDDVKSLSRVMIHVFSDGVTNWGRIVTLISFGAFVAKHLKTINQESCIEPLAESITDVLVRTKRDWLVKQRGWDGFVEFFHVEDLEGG

B1: Alphabody CMPX-383B (designed binder)
chain: MGHHHHHHHHHHSSGHIEGRHGPRPRPRPRPRPRPRPGGMSTEQIQKRTAAIQKRIAAIQKRIYAMTASGGAGAAGAGAGMSIEEITKQIAAIQLRIVGDQVQIAYQTASGAGAGAGGMSTEEIQKQIAAIETQICKIEAAIELKEAGITSDFYFELINKAKTCEAVEALKEHILAAHTPRPRPRPRPRPRPRPGSGKPIPNPLLGLDST
notes: an engineered disulfide bond links helix E to helix C; Has Ala at the position called 40
B1: the “in vitro IC50 on MM cell line MOLP-8” value in assay [1] turned out to be 820 nM. Further, the “in vitro IC50 on MM cell line NCI-H929” value in assay [1] came out at 450 nM. The values for the Kd (with human serum albumin [2]; with mouse serum albumin; in assay [4]) were 310 nM, 2250 nM and 0.028 nM, respectively. Besides, in the assay with human serum albumin [3], the “fold reduction in affinity against the Gly40 form” value was 40 fold.

B2: CMPX_383B_Gly40 (designed binder)
chain: B1 chain with A166G
In the case of B2, the Kd with human serum albumin [2] was determined as 7.5 nM; with mouse serum albumin, 298 nM; in assay [4] it was 0.043 nM.
